In one assay the target is axonemal microtubules. Kind of assay: single-molecule microtubule release assay (TIRF); as a6, perfused with 5 mM ATP in the presence of 800 nM Lis1; durations of attachment fitted by a one-phase exponential decay.
The target in assay [1] is microtubules (taxol-stabilized, α/β-tubulin) (UniProt P02554).
Chain of microtubules (taxol-stabilized, α/β-tubulin) (chain, as listed by the source, chain 1 of 2): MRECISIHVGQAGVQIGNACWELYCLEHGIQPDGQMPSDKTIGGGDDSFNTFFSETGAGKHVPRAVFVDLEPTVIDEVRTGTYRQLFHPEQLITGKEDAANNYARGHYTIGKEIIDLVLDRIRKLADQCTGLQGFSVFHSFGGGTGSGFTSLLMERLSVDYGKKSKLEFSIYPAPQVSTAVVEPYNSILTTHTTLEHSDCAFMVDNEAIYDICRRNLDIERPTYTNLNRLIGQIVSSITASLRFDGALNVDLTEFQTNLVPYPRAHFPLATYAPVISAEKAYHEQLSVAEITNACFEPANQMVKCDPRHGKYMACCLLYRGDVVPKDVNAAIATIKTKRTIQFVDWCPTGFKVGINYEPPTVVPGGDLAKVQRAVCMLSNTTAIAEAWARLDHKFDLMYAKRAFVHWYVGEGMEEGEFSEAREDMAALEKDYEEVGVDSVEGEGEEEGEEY
Chain of microtubules (taxol-stabilized, α/β-tubulin) (P02554 whole entry, chain 2 of 2): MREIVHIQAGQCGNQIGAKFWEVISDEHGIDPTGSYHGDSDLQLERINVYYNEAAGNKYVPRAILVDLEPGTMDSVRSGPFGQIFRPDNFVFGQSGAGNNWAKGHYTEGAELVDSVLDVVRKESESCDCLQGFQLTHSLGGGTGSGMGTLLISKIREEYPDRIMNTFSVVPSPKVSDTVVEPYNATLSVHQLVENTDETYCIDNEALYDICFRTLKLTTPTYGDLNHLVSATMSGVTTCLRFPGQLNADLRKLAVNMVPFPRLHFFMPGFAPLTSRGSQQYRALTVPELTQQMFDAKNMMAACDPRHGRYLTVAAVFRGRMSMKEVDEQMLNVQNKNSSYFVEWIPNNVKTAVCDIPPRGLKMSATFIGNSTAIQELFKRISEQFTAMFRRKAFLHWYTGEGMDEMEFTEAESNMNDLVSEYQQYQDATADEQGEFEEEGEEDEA

For “monomeric dynein_(331 kDa) (domain or fragment)”, in the assay with axonemal microtubules, the off-rate (decay constant) of microtubule attachments after ATP addition, with 800 nM Lis1 and 5 mM ATP amounted to 0.162 s⁻¹; the off-rate (decay constant) of rebinding events, with Lis1 and ATP is 0.23 s⁻¹.
GST-dynein_(331 kDa), P36022 1-4092: in assay [1], the Km(MT) of the microtubule-stimulated ATPase activity, with 140 nM Lis1 amounted to 0.2 µM and the Km(MT) of the microtubule-stimulated ATPase activity, without Lis1 turned out to be 0.09 µM.

The values above are taken from article PMC3438448.
